# Assays:
# Assay in all cases: Crosslinking/co-immunoprecipitation/mass spectrometry (TMT quantitative proteomics) to identify irisin receptors
# Assay type in all cases: binding
# [1] = biological target: T1, MLO-Y4 cell surface proteins (Mus musculus, UniProt P56567); settings: co-precipitated protein Csta (CYTA_MOUSE)
# T1 construct: endogenous in cells; host or cells: MLO-Y4
# T1 sequence (P56567 1-97): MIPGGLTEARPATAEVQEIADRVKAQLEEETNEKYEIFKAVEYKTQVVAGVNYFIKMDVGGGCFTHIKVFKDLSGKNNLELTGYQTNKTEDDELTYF
# Method in brief: (§1)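 Mouse MLO-Y4 cells were switched to serum-free FreeStyle medium for 4 h, chilled, then exposed to 10 nM His-tagged irisin (or adipsin as control) for 20 min. Cells were crosslinked with 1.5 mM DTSSP (30 min, ice), and bound proteins were pulled down on Ni-NTA and eluted with 250 mM imidazole. Eluates were separated by SDS-PAGE, trypsin-digested in gel, TMT 6-plex labelled and quantified by MS3-based LC-MS/MS on an Orbitrap Fusion Lumos.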
# [2] = biological target: T2, MLO-Y4 cell surface proteins (Mus musculus, UniProt Q62028); settings: co-precipitated protein Pla2r1 (PLA2R_MOUSE)
# T2 construct: endogenous in cells; host or cells: MLO-Y4
# T2 sequence (Q62028 27-1487): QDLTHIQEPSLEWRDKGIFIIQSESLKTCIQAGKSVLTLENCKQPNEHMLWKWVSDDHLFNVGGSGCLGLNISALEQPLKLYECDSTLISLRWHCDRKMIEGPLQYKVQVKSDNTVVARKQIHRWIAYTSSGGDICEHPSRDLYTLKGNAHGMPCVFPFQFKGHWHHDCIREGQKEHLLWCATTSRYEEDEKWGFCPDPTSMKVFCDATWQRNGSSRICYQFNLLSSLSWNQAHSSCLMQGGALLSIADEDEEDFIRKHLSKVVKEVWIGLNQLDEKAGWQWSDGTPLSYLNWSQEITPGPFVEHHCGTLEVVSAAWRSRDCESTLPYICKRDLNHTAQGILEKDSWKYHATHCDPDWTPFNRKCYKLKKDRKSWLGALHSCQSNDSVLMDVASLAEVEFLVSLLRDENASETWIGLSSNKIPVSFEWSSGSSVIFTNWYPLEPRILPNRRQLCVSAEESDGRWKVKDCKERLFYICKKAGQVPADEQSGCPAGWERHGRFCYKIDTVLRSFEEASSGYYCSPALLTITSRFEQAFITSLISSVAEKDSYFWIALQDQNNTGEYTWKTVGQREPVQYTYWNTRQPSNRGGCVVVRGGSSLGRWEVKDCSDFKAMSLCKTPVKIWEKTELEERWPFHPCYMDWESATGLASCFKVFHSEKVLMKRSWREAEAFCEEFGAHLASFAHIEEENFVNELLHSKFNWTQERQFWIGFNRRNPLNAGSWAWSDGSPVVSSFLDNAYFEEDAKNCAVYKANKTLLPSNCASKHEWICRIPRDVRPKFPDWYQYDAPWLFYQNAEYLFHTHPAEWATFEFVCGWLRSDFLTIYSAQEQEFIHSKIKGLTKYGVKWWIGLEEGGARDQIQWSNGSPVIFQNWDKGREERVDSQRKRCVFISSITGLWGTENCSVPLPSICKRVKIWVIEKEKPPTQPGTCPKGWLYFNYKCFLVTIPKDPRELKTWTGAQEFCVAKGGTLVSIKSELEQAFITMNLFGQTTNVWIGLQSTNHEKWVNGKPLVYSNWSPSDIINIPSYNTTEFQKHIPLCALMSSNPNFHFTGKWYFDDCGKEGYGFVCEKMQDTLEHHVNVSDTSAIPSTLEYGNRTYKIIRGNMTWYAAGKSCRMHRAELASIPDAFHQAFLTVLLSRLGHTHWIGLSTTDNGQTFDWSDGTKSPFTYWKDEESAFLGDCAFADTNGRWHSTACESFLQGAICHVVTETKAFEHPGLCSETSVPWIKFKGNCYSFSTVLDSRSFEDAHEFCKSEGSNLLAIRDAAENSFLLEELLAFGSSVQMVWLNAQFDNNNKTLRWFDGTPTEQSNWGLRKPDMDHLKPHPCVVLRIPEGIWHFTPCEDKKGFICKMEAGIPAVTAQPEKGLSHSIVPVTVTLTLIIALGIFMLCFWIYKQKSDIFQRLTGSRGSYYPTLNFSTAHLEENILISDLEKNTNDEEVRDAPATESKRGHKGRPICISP
# Method in brief: as §1
# [3] = biological target: T3, MLO-Y4 cell surface proteins (Mus musculus, UniProt E9PW83); settings: co-precipitated protein Fam184a (E9PW83_MOUSE)
# T3 construct: endogenous in cells; host or cells: MLO-Y4
# T3 sequence (E9PW83 1-1143): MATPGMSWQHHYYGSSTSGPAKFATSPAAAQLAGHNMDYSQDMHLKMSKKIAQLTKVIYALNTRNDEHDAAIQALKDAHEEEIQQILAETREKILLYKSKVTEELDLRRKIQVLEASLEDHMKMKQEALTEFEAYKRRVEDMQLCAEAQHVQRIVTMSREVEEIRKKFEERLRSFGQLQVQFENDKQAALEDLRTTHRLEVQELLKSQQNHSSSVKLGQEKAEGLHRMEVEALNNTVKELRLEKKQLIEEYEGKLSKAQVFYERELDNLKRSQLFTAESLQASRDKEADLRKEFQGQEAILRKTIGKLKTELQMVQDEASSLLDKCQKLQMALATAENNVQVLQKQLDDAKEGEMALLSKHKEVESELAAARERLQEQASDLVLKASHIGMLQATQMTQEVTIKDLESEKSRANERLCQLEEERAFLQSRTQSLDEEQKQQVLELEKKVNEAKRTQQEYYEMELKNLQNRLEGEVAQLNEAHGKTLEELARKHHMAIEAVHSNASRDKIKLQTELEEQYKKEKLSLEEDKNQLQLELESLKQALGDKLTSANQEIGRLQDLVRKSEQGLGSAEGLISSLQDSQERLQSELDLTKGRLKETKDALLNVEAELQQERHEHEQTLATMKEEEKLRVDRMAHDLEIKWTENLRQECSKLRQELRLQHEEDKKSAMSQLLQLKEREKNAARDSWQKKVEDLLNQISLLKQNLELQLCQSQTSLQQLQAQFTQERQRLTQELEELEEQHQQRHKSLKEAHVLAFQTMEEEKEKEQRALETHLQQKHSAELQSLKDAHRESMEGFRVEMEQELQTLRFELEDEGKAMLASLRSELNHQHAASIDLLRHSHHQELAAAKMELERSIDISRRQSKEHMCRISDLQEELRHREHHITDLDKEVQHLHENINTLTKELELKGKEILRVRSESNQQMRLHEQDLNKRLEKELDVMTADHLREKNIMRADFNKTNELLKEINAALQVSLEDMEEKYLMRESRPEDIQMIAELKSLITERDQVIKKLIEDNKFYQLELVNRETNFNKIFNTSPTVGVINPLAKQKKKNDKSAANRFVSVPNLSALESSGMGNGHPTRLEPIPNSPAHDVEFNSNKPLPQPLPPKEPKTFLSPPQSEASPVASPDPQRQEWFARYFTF
# Method in brief: as §1
molecule,measurement,setting,value
"irisin: secreted cleaved form of FNDC5; recombinant human/mouse irisin with C-terminal his tag produced in HEK293 cells (protein, left off: small tags and cut ends, secreted cleaved form of FNDC5; recombinant human/mouse irisin with C-terminal his tag produced in HEK293 cells) DSPSAPVNVTVRHLKANSAVVSWDVLEDEVVIGFAISQQKKDVRMLRFIQEVNTTTRSCALWDLEEDTEYIVHVQAISIQGQSPASEPVLFKTPREAEKMASKNKDEVTMKE",TMT signal-to-noise ratio,[1],2.132
same,irisin/adipsin TMT signal-to-noise ratio,[1],0.013
same,TMT signal-to-noise ratio,[2],142.778
same,irisin/adipsin TMT signal-to-noise ratio,[2],0.275
same,TMT signal-to-noise ratio,[3],8.102
same,irisin/adipsin TMT signal-to-noise ratio,[3],0.009

# Source: patent publication US20210063414A1, “METHODS FOR PREVENTING AND/OR TREATING BONE LOSS CONDITIONS BY MODULATING IRISIN” (Dana-Farber Cancer Institute, Inc., priority 2018, published 2021)
